Here are results for 41 sequences from the nanobody polyreactivity screen of Harvey et al. (2022).

This series can be described thus: yeast display, Sf9 membrane polyspecificity reagent, FACS + sequencing; frameworks hold sequencing errors. In short, it runs like this: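 In a synthetic yeast display library (Saccharomyces cerevisiae BJ5465), nanobody expression was induced with galactose for 36–48 hours. FACS gates were set low and high (top ~1%) using anti-HA fluorescence for expression and streptavidin fluorescence for binding of the Sf9 membrane reagent. Each polyreactivity label is drawn from the gate of origin.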
As to “QFQLVESWGGLVQAGGSLRLSCAASGYIFGYVMGWYRQAPGKERELVAAITYSSGNTYYADSVKGRFTISRDNAKNTVYLQMNSLKPEDTAVYYCAKQAYYKGRLAYGYWGQATQVTVSS”, the “polyreactivity (PSR sort gate)” value is given as “high polyreactivity”.
The same measure for “QFQLVETGGGIVHAGGSLRLSCAASGSTFWYYAMGWYRQAPGKERELVAGITQSGGSTYYADSVKGRFTISRDNAKNTVYLQMNSLKPEDSAVYYFAKDGRVSGDFVYWGQGTQVTVSS”: “low polyreactivity”; for “QFQLVETRRGLVQAGGSLRLSCAASGSIFLENAMRRYRQAPGKERELVAVINSGDSTYYADSVKGRFTMSRDNAKNTVYLQMNSLKPEDTSVYYCAADRDVRTRVFSYDYWGQGTQVTVSS”: “low polyreactivity”.
For “QGHLVESGGGLFQAGGSLRLSCAASGSILSYYALGRYRQAPGKEMEMVAVINSGGRTNYADAVKGRFTISRDNAKYTVYLQMNSLKTEDTAVYDCAAQGYFVDRAGRYYRVDYRGQGTQVTVSS”, the “polyreactivity (PSR sort gate)” value is listed as “high polyreactivity”.
With “QGQLEDSGGGLVQAGGSLRLSCAASGLTYDHNAMGWYRNATGKEREFFAVISWRGTSTYYADSVKGRFTISRDNAKNTVFLQMHSLKPEDTAVYYCATRYYGDDVYRYDHWGQGTQVTVSS”, the “polyreactivity (PSR sort gate)” value is recorded as “high polyreactivity”.
Consider “QGQLEESGGGLVQAGGSLRLSCAASGFTIYRYAKGWYRQAPGKAMELVAAISNSGGSTYYADSVKGRFTISRDNAKNTVYVQMNSLKPEDTAVYYCAADPGYNVYGYYYWGQGTQVTVSS”, for which the “polyreactivity (PSR sort gate)” value is given as “high polyreactivity”.
As to “QGQLVEAGGGLVQAGGSLRLSCAASGNTFKKYARGWYRQAPGKERELVAAISNGGSTTYADSVKGRFTISLDTAKNTVYLQMNSLKPEDTAVYYCNAGRPYGTQKRYDYWGQGTQVTVSS”, the “polyreactivity (PSR sort gate)” value is “low polyreactivity”.
For “QGQLVESGAGLVQAGGSLRLSCAASGFIFYDYVMGWYRQAPGKERELVAAITGSGGGTYYADSVKGRFTISRDNAKNTVYLQMNSLKPEDTAVYYCAADYISVYGYEYWGQGTQVTVSS”, the “polyreactivity (PSR sort gate)” value is listed as “high polyreactivity”.
The same measure for “QGQLVESGGCLVQAGGSRRLSCAASGRTFRGNAMGWYRQAPGKERELVPAISRRGGSTYYSDSVKGRFTISRDNAKITVYLQMNSLEPEDTADYYCARDDVDDNSYGNENGTYGYWGQGTQVTVSS”: “high polyreactivity”; for “QGQLVESGGCLVQEGGSLRLSCAASGRIFWYYTMGWYRQAPGKERELVATIRSGDRKNYADSVKGRFTISLDNAKNTVYLQMNSLKPDDTAVYYCAATRALVNTHRYYYWGQGTQVTVSS”: “high polyreactivity”.
In the case of “QGQLVESGGGFVQAGGSLRLSCAASGSTFRYYTMGWYRQAPGKEREFVAAITSSGTSTYYADSVKGRFTISRDIAKNTVYLQMNSLKPEDTAVYYCNKVGIYGSRSRYDSWGQGTQVTVSS” it was “high polyreactivity”.
In the case of “QGQLVESGGGLDQAGGSLRLSCAASGSTFPVYAMGLYRQAPGKDRELVAAITSGVSTNYADSVKGRFTISRDNAKNTVYVQKNSMKPEDTAVYYCAKEFGLLPIRDYYWGQGTQVTESS” it was “low polyreactivity”; in that of “QGQLVESGGGLLQAGGSLRLSCAASGRTFPYNALGWYRQAPGKERELVAAMSSGTRTDSADAVKGRFTISRDTAKNTVYLQMNSLKPEATAVYYWAADDYHYLWRADGFDYWGQGTQVTVSS”, “high polyreactivity”; in that of “QGQLVESGGGLVHAGGSLRLSCAASGSIFTGNAMGWYIQAPGKEREMVAAITGRGGNTYYADSVKGRYTISRDNAKNTVYLQMMSLKPEETAGYYCAKVFFHTPIVPEYDYWGQGSQVTVSS”, “low polyreactivity”.
On to “QGQLVESGGGLVQAGGRLRLSCAATGLTFAKNAMGWYRQAPGKEREMFAAIRSGDDTTYADSVKGRFTISRDNAKNTVYLQMNSLKPEDSAEYYCAARYYRTWDGRFGYWGQGTQVTVSS”, for which the “polyreactivity (PSR sort gate)” value is recorded as “high polyreactivity”.
In the case of “QGQLVESGGGLVQAGGSLLLSCAASGRIFTGKAMGWSRQAPGKERELGAAIDWSGGSTYYADSVKGRFTISRDNAKNTVYLQMNSLKPEDTAVYYCNATYSNSAVGYLGFDYWGQGTQVTVSS” it was “low polyreactivity”; in that of “QGQLVESGGGLVQAGGSLRFSCADSGRIFHRYVMGWYRQAPGKERELVAAISWSSGSTSADSVKGRFTISRDNAKNTDYLQMNSLKPEDTAVYYCNASYNGVPARYDYWGQGTQVTVSS”, “low polyreactivity”; in that of “QGQLVESGGGLVQAGGSLRIICAASANNFAKYAMGRYRQAPGKERELVAAISKRGGSTYYADSVKGRFTISRDNAKNTVYLQMNSLKPEETAVYYCAQRVLNYQRYDYWGQGTQVTVSS”, “high polyreactivity”.
With “QGQLVESGGGLVQAGGSLRITCAASGITFPYNAMGWYRQAPGTERELVAAITRSGASTYYADSVKGRFTISRDNSKNTVYVQMNSLKPEDTAVYYCAAKVIGRPRPYYYWGQGTQVTVSS”, the “polyreactivity (PSR sort gate)” value is given as “high polyreactivity”.
In the case of “QGQLVESGGGLVQAGGSLRLSCAASGFTFARNVMGWSRQAPGTERELVAAITTSGGSTYYADSVKGRFTISRDNAKNTVYLQMNSLKPEDTAVYYCARRVYGYYIPYNYWGQGTQVTVSS”, the “polyreactivity (PSR sort gate)” value is “high polyreactivity”.
Consider “QGQLVESGGGLVQAGGSLRLSCAASGGIFKAYAMGWYRQAPGQERELVAVITIGGRTTYADSVKGRFTISRDNAKNTVYLQMNSLKPEDTAVYYCAKTNYNWLSTAEHDYWGQGTQVTVSS”, for which the “polyreactivity (PSR sort gate)” value is “low polyreactivity”.
In the case of “QGQLVESGGGLVQAGGSLRLSCAASGGIFSDYAMGWYIQEPGKEREFVAAISVRGTSTDYADSVKGRFTISRDNAKNTVYLQMNSLKPEDTAVYYCNAQGAPQVRDVLPYEFDYWGQGTQVTVSS” it was “low polyreactivity”; in that of “QGQLVESGGGLVQAGGSLRLSCAASGGIFVGYPMGWYRQAPGKERELVASSDVRVGSTYYGDSVKGRFTISRDKAKNTVYLQMTSLKPEDTAVYSCEAGGRAVRIYWGYYRTSYDYWGLGTQVTVSS”, “low polyreactivity”.
The same measure for “QGQLVESGGGLVQAGGSLRLSCAASGGTFRAYVMGWSRQAPGKERELVADISRSGTRTYYADSVKGRFTISRDNAKNTVYLQMNSLKPEDTAVYYCAAAAKSWLFEYWGQGTQVTVSS”: “high polyreactivity”; for “QGQLVESGGGLVQAGGSLRLSCAASGITVGVYARGRYRQEPGKEREFVADIDRTGGSTYAVSVKGRFTISRDIAKNTVYLQMNSLKPEDTAVYYCAAGWGFRFYYWYWGQGTQVTVSS”: “high polyreactivity”; for “QGQLVESGGGLVQAGGSLRLSCAASGLTLYYYAMGWYIQAPGKERELVAAINRGGSTYYADSVKGRFTISRDNAKNTVYLQMNSLKPEDTAVYYCAVDYGVRDLTYYYWGQGTQVTVSS”: “low polyreactivity”.
In the case of “QGQLVESGGGLVQAGGSLRLSCAASGNIFNRYGMGWSRQAPGKERELVAAISSSGTSPYYADSVKGRFTISRDYAKNTVYLQMNSLKPEDTAVYYCAASYPTRAWEYDYWGQGTQVTVSS” it was “high polyreactivity”; in that of “QGQLVESGGGLVQAGGSLRLSCAASGNTFGKNAMGWYRQAPGKERELVAAIRSSGGSTYYADSVKGRFTISRDNAKNTVYLQMNSLKPEDSAVYYCNADVIRQTDGYDYWGQGTLVTVSS”, “high polyreactivity”; in that of “QGQLVESGGGLVQAGGSLRLSCAASGRIFPAYGMAWYRQAPGQERELVATIDNGGGTYYADSVKGRFTISRDNAKNTVYLQMNSLKPEDTAVYYCARDRHVRWGLKMDFWGQGTQVTVSS”, “low polyreactivity”.
For the sequence “QGQLVESGGGLVQAGGSLRLSCAASGRIFRIYAMGWYRQAPGKERELVARITYSGGSTYYADSVKGRFTISRDNAKNTVYLQMNSLKPEDTAVYYCAADWLGYQYGYWGQGTQVTVSW”, the “polyreactivity (PSR sort gate)” value was “low polyreactivity”.
For “QGQLVESGGGLVQAGGSLRLSCAASGRTFFNNVMGWYRQAPGKERELVAAISKSGTRTYYADSVKGRFTISRDNAKNTVYLQMNSVKPEDTAVYYCATGQYLRTSRYYYWGHGTQVTVSS”, the “polyreactivity (PSR sort gate)” value was “high polyreactivity”.
In the case of “QGQLVESGGGLVQAGGSLRLSCAASGRTFYANAMGWYRQAPGKERELVAAISTGGDGTYYADSVKGRFTISRDNAKNTVYLQMNSLKPEDAAVYYCAVRHRASGILYDYWGQGTQVTVSS” it was “low polyreactivity”; in that of “QGQLVESGGGLVQAGGSLRLSCAASGRTFYRNAMGWYRQAPGKEREFVAAITSIGGATYYADSVKGRFTISRDNAKNTVDLQMNSLKPEDTAVYYCAAKGFRYPEYDYWGQGTQVTVSS”, “low polyreactivity”; in that of “QGQLVESGGGLVQAGGSLRLSCAASGSIFNTYAMGWYRQAPGKEREFVASISRSGGSTRYADSVKGRFTISRDNAKNTVYLQMNSLKPEDTEVYYSAARVPRGHVTYDSWGQGTKVTVSS”, “high polyreactivity”.
For “QGQLVESGGGLVQAGGSLRLSCAASGSIFPYYAMGWYRQAHGKERELVAVITTSGGRTYYADSVKGRFTISRDNAKNTVYLQMNSLKPADTAVYYCATDVRQGSGWRYYYWGQGTQVTVSS”, the “polyreactivity (PSR sort gate)” value is recorded as “high polyreactivity”.
In the case of “QGQLVESGGGLVQAGGSLRLSCAASGSIFSLNSMGWYRQAPGKERELVAASGGGSTYYADSVKGRFTISRDNAKNTVYLQMNSLKTEDTAVYYCAGDQSFDYDFSHYYYWGQGTQVTVSS” it was “low polyreactivity”; in that of “QGQLVESGGGLVQAGGSLRLSCAASGSIFVINAMGWYRQAPGKERELVAAIDWGGDTTYYADSVKGRFTISRDNAKNTVYLQMNSLKPEDSAVYYCAAGYYLRRYYYWGQGTQVTVSS”, “high polyreactivity”.
Turning to “QGQLVESGGGLVQAGGSLRLSCAASGSIFVYNVMGWYRQEPGKATELVADISKTAGRTYSADSVKGRFTISRDNAKNTVYLQINSLKPEDTAVSYCAVGNKRDAYYQYSSYGYWGQGTQVTVSS”, the “polyreactivity (PSR sort gate)” value is given as “low polyreactivity”.
Regarding “QGQLVESGGGLVQAGGSLRLSCAASGSIFYINAMGWYRQAPGKERELVASISGGGGSTYYADSVKGRFTLSRDNAKNTVYLQMNSLKPEDTAVYYCNTVSRKDYDYWGQGTQVTVSS”, the “polyreactivity (PSR sort gate)” value was “high polyreactivity”.
Regarding “QGQLVESGGGLVQAGGSLRLSCAASGSIYPLNVMGWYRQSPGKERELVATISKSGGSTYYADSVKGRITISRDNAKNTVYLQMNSLKPEDTGVYNCTVGRYVVGGTSVGYWGQGTQVSVSS”, the “polyreactivity (PSR sort gate)” value is recorded as “low polyreactivity”.
The same measure for “QGQLVESGGGLVQAGGSLRLSCAASGYIFDWYAMGWYRQAPGKEREFVAAISGSDGSTYYADSVKGRFTISRDNAKNTVYLQMNSLKPEDSAVYYCAADPYYGEMEYWGQGTQVTVSS”: “low polyreactivity”.
